Measurements taken from US20240033244A1, “COMPOSITIONS AND METHODS FOR INHIBITING YTHDF1” (SHANGHAI INSTITUTE OF MATERIA MEDICA, CHINESE ACADEMY OF …, priority 2020, published 2024).
Numbering of substitutions follows the chain as printed.

Columns and labels:
B16-OVA melanoma = test: B16-OVA tumor growth in wild-type mice; format: in vivo, mouse; conditions: 5×10^5 B16-OVA in C57BL/6 mice, 10 μM i.v. 9 days after implantation (FIG. 19)
YTHDF1 (361-559) Y397A = biological target: T1, YTHDF1 (361-559) Y397A (UniProt Q9BYJ9 SEQ:3-201); test: FP; binding seen through SAA inhibition assay; affinity not given; conditions: tags: GST tag removed; label: 5'-FAM
T1 chain: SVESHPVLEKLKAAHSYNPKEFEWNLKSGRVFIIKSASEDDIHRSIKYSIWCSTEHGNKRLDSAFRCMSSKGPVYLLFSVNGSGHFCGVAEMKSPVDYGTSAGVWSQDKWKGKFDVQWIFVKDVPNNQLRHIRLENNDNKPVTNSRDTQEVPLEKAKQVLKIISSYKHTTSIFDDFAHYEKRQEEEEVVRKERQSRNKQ

YTHDF1 (361-559) C412A = biological target: T2, YTHDF1 (361-559) C412A (UniProt Q9BYJ9 SEQ:3-201); test: as above; conditions: tags: GST tag removed; label: 5'-FAM
T2 chain: T1 chain with A37Y, C52A

YTHDF1 (361-559) K395A = biological target: T3, YTHDF1 (361-559) K395A (UniProt Q9BYJ9 SEQ:3-201); test: as above; conditions: tags: GST tag removed; label: 5'-FAM
T3 chain: T1 chain with K35A, A37Y

YTHDF1 (361-559) R506A = biological target: T4, YTHDF1 (361-559) R506A (UniProt Q9BYJ9 SEQ:3-201); test: as above; conditions: tags: GST tag removed; label: 5'-FAM
T4 chain: T1 chain with A37Y, R146A

[1] = biological target: T5, YTHDF1 (361-559), YTH domain (UniProt Q9BYJ9 SEQ:3-201); test: FP; value only in figure; 20 mM Hepes pH 7.4, 50 mM NaCl, 0.01% tween 20, 5% glycerol, 4 C; conditions: tags: GST tag removed; E. coli BL21(DE3); label: 5'-FAM
T5 sequence: T1 chain with A37Y

YTHDF1 (361-559) F480A = biological target: T6, YTHDF1 (361-559) F480A (UniProt Q9BYJ9 SEQ:3-201, F480A); test: FP; value only in figure; affinity not influenced vs wild type; conditions: tags: GST tag removed; label: 5'-FAM
T6 sequence: T1 chain with A37Y, F120A

YTHDF1 (361-559) F382A = biological target: T7, YTHDF1 (361-559) F382A (UniProt Q9BYJ9 SEQ:3-201, F382A); test: as above; conditions: tags: GST tag removed; label: 5'-FAM
T7 sequence: T1 chain with F22A, A37Y

YTHDF1 (361-559) N378A = biological target: T8, YTHDF1 (361-559) N378A (UniProt Q9BYJ9 SEQ:3-201, N378A); test: as above; conditions: tags: GST tag removed; label: 5'-FAM
T8 sequence: T1 chain with N18A, A37Y

YTHDF1 (361-559) H528A = biological target: T9, YTHDF1 (361-559) H528A (UniProt Q9BYJ9 SEQ:3-201, H528A); test: as above; conditions: tags: GST tag removed; label: 5'-FAM
T9 sequence: T1 chain with A37Y, H168A

[2] = biological target: T10, YTHDF1 C-terminal truncation (UniProt Q9BYJ9 SEQ:3-174); test: as above; conditions: tags: GST tag removed; label: 5'-FAM
T10 chain: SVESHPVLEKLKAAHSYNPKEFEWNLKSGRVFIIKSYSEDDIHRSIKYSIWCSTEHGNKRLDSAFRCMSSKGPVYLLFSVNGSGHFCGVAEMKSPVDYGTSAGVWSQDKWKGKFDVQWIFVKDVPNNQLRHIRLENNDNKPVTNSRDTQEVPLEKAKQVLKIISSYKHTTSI

YTHDF1 (361-559) W384A = biological target: T11, YTHDF1 (361-559) W384A (UniProt Q9BYJ9 SEQ:3-201, W384A); test: as above; conditions: tags: GST tag removed; label: 5'-FAM
T11 sequence: T1 chain with W24A, A37Y

His-YTHDF1 (361-559) = biological target: T12, His-YTHDF1 (361-559) (UniProt Q9BYJ9 SEQ:40-238); test: AlphaScreen; 20 mM Hepes pH 7.4, 150 mM NaCl, BSA, TritonX-100; binding inhibited by SAA; conditions: tags: His; label: 5'-biotin
T12 sequence: T1 chain with A37Y
Experimental: Then 10 nM biotinylated m⁶A-containing mRNA (5′-biotin-[…] (m⁶A) CUGUG-3′) (SEQ ID NO: 15) was added to bind with YTHDF1 (361-559), and unbiotinylated m⁶A-containing mRNA was used as the positive control. Before Alpha signal detection, streptavidin donor beads and anti-His acceptor beads were added into the white assay plate in subdued light (OptiPlate™-384, PerkinElmer) and incubated at 4° C. for 1 hour to ensure sufficient binding between biotin tag and streptavidin donor beads, as well as that between His tag and anti-His acceptor beads. Then the Alpha signal was detected on Envision Readers (PerkinElmer).

O=C(/C=C/c1ccc(O)c2oc(-c3ccc(O)c(O)c3)cc12)O[C@H](Cc1ccc(O)c(O)c1)C(=O)O [SAC, Salvianolic Acid C]
tumor growth was much slower: tumor growth versus DMSO (B16-OVA melanoma)

B1: 5'-FAM m6A-containing mRNA (ssRNA)
RNA: UUCUUCUGUGGACUGUG
modifications: m6A at position 12 (UUCUUCUGUGG(m6A)CUGUG)
binds: binding result (YTHDF1 (361-559) Y397A) | binding result (YTHDF1 (361-559) C412A) | binding result (YTHDF1 (361-559) K395A) | binding result (YTHDF1 (361-559) R506A) | binding result [1] | binding result (YTHDF1 (361-559) F480A) | binding result (YTHDF1 (361-559) F382A) | binding result (YTHDF1 (361-559) N378A) | binding result (YTHDF1 (361-559) H528A) | binding result [2] | binding result (YTHDF1 (361-559) W384A)

B2: 5'-biotin m6A-containing mRNA (ssRNA)
RNA: UUCUUCUGUGGACUGUG
modifications: m6A at position 12 (UUCUUCUGUGG(m6A)CUGUG)
binds: binding result (His-YTHDF1 (361-559))
